In patent US20020151484A1 (HYBRIGENICS, published 2002):

What was measured:
Test in all cases: yeast two-hybrid, mating, His3/LacZ reporters
[1] = target: T1, SID polypeptide of SEQ ID No 29, NS3 (100%), HCV strain H77 nt 4451-4790 (hepatitis C virus strain H77, UniProt P27958 1371-1482)
T1 construct: Intersection of yeast two-hybrid prey fragments; also called SID NS3 (100%)
T1 sequence: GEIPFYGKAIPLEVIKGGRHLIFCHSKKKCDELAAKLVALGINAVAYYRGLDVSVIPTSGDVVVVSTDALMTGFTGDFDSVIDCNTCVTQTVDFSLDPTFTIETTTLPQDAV

[2] = target: T2, SID polypeptide of SEQ ID No 30, NS4B (100%), HCV strain H77 nt 6029-6194 (hepatitis C virus strain H77, UniProt P26664 1897-1950)
T2 construct: Intersection of yeast two-hybrid prey fragments; also called SID NS4B (100%)
T2 sequence: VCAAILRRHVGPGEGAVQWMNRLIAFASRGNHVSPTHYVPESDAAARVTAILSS

[3] = target: T3, SID polypeptide of SEQ ID No 31, NS5B (100%), HCV strain H77 nt 8354-8665 (hepatitis C virus strain H77, UniProt P26664 2672-2773)
T3 construct: Intersection of yeast two-hybrid prey fragments; also called SID NS5B (100%)

[4] = target: T4, Bait polypeptide of SEQ ID No 107, NS5B (100%), HCV strain H77 nt 7838-8743 (hepatitis C virus strain H77, UniProt P26664 2500-2799)
T4 construct: also called Bait NS5B (100%)

[5] = target: T5, SID polypeptide of SEQ ID No 33, NS3 (100%), HCV strain H77 nt 4715-4901 (hepatitis C virus strain H77, UniProt P27958 1459-1519)
T5 construct: Intersection of yeast two-hybrid prey fragments; also called SID NS3 (100%)
T5 sequence: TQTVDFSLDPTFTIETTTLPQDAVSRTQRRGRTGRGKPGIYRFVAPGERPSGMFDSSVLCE

[6] = target: T6, Bait polypeptide of SEQ ID No 109, NS5B (100%), HCV strain H77 nt 7976-8759 (hepatitis C virus strain H77, UniProt P26664 2546-2805)
T6 construct: also called Bait NS5B (100%)

[7] = target: T7, Bait polypeptide of SEQ ID No 111, NS5B (100%), HCV strain H77 nt 8708-8978 (hepatitis C virus strain H77, UniProt P27958 2790-2878)
T7 construct: also called Bait NS5B (100%)

[8] = target: T8, Bait polypeptide of SEQ ID No 112, NS5B (100%), HCV strain H77 nt 8996-9220 (hepatitis C virus strain H77, UniProt Q03463 2886-2958)
T8 construct: also called Bait NS5B (100%)

[9] = target: T9, Bait polypeptide of SEQ ID No 79, E1 (100%), HCV strain H77 nt 995-1342 (hepatitis C virus strain H77, UniProt P27958 219-332)
T9 construct: also called Bait E1 (100%)
T9 chain: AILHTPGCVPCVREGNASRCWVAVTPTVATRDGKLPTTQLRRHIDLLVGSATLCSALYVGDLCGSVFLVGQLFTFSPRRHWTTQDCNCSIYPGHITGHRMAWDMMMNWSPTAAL

[10] = target: T10, Bait polypeptide of SEQ ID No 80, E1 (4%)/E2 (95%), HCV strain H77 nt 1478-1756 (hepatitis C virus strain H77, UniProt P27958 380-470)
T10 construct: also called Bait E1 (4%)/E2 (95%)

[11] = target: T11, SID polypeptide of SEQ ID No 8, NS4A (59%)/NS4B (40%), HCV strain H77 nt 5375-5542 (hepatitis C virus strain H77, UniProt P27958 1679-1732)
T11 construct: Intersection of yeast two-hybrid prey fragments; also called SID NS4A (59%)/NS4B (40%)
T11 sequence: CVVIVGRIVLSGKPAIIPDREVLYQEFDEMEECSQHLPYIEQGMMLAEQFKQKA

[12] = target: T12, Bait polypeptide of SEQ ID No 84, NS3 (100%), HCV strain H77 nt 3767-4244 (hepatitis C virus strain H77, UniProt P27958 1143-1300)
T12 construct: also called Bait NS3 (100%)
T12 chain: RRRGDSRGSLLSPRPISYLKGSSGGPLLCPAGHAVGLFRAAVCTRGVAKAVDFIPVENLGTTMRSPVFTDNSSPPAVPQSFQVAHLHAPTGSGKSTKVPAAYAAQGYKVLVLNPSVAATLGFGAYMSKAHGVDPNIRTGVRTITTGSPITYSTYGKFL

B1: Bait polypeptide of SEQ ID No 104, NS5A (100%), HCV strain H77 nt 7019-7249 (other)
chain: IEANLLWRQEMGGNITRVESENKVVILDSFDPLVAEEDEREVSVPAEILRKSRRFARALPVWARPDYNPPLVETW
notes: also called Bait NS5A (100%)
binding result [1]: binds

B2: Bait polypeptide of SEQ ID No 105, NS5A (100%), HCV strain H77 nt 7274-7549 (other)
chain: HGCPLPPPRSPPVPPPRKKRTVVLTESTLSTALAELATKSFGSSSTSGITGDNTTTSSEPAPSGCPPDSDVESYSSMPPLEGEPGDPDLS
notes: also called Bait NS5A (100%)
binding result [2]: binds

B3: Bait polypeptide of SEQ ID No 106, NS5B (100%), HCV strain H77 nt 7613-8027 (other)
chain: not shown
notes: also called Bait NS5B (100%)
binding result [3]: binds

B4: SID polypeptide of SEQ ID No 32, NS5B (100%), HCV strain H77 nt 7769-8011 (other)
chain: not shown
notes: Intersection of yeast two-hybrid prey fragments; also called SID NS5B (100%)
binding result [4]: binds

B5: Bait polypeptide of SEQ ID No 108, NS5B (100%), HCV strain H77 nt 7856-8458 (other)
chain: not shown
notes: also called Bait NS5B (100%)
binding result [5]: binds

B6: SID polypeptide of SEQ ID No 34, NS5B (100%), HCV strain H77 nt 7775-8011 (other)
chain: not shown
notes: as for B4
binding result [6]: binds

B7: SID polypeptide of SEQ ID No 36, E2 (100%), HCV strain H77 nt 1751-1865 (other)
chain: PISYANGSGLDERPYCWHYPPRPCGIVPAKSVCGPVY
notes: Intersection of yeast two-hybrid prey fragments; also called SID E2 (100%)
binding result [7]: binds

B8: SID polypeptide of SEQ ID No 37, NS4B (57%)/NS5A(41%), HCV strain H77 nt 6194-6303 (other)
chain: TVTQLLRRLHQWISSECTTPCSGSWLRDIWDWICE
notes: Intersection of yeast two-hybrid prey fragments; also called SID NS4B (57%)/NS5A(41%)
binding result [8]: binds

B9: SID polypeptide of SEQ ID No 4, E2 (100%), HCV strain H77 nt 1871-1987 (other)
chain: PSPVVVGTTDRSGAPTYSWGANDTDVFVLNNTRPPLG
notes: as for B7
binding result [9]: binds

B10: SID polypeptide of SEQ ID No 5, NS3 (100%), HCV strain H77 nt 4787-5242 (other)
chain: SRTQRRGRTGRGKPGIYRFVAPGERPSGMFDSSVLCECYDAGCAWYELTPAETTVRLRAYMNTPGLPVCQDHLEFWEGVFTGLTHIDAHFLSQTKQSGENFPYLVAYQATVCARAQAPPPSWDQMWKCLIRLKPTLHGPTPLLYRLGAVQ
notes: Intersection of yeast two-hybrid prey fragments; also called SID NS3 (100%)
binding result [10]: binds

B11: Bait polypeptide of SEQ ID No 83, NS2 (12%)/NS3 (87%), HCV strain H77 nt 3312-4150 (other)
chain: AACGDIINGLPVSARRGQEILLGPADGMVSKGWRLLAPITAYAQQTRGLLGCIITSLTGRDKNQVEGEVQIVSTATQTFLATCINGVCWTVYHGAGTRTIASPKGPVIQMYTNVDQDLVGWPAPQGSRSLTPCTCGSSDLYLVTRHADVIPVRRRGDSRGSLLSPRPISYLKGSSGGPLLCPAGHAVGLFRAAVCTRGVAKAVDFIPVENLGTTMRSPVFTDNSSPPAVPQSFQVAHLHAPTGSGKSTKVPAAYAAQGYKVLVLNPSVAATLGFGAYM
notes: also called Bait NS2 (12%)/NS3 (87%)
binding result [11]: binds

B12: SID polypeptide of SEQ ID No 9, NS3 (100%), HCV strain H77 nt 4676-4801 (other)
chain: GDFDSVIDCNTCVTQTVDFSLDPTFTIETTTLPQDAVSRT
notes: as for B10
binding result [12]: binds
